Results on two molecules are retold here after publication PMC9287425, “Hepatic non-parenchymal S100A9-TLR4-mTORC1 axis normalizes diabetic ketogenesis” (Nature Communications, 2022).

Data set [1] concerns the molecule itself. Kind of data set: SEC; analytical gel filtration, Superose 6 Increase 3.2/300 column. Background: Size exclusion chromatography separates by hydrodynamic size, large species first.
For data set [2], the target named is T1, recombinant human S100A9 (human), P06702.
T1 chain: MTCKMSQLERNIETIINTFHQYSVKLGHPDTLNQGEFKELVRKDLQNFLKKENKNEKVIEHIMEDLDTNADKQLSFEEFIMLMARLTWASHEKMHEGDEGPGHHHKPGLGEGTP
In words: SEC-MALS; 30 µL of protein at 5 mg/mL on a Superose 6 Increase 10/300 GL column; light scattering and refractive index detectors. The conditions noted are these: remark: other sources report otherwise.

B1: recombinant murine S100A9 (natural protein, UniProt P31725 1-113, looked up)
chain: MANKAPSQMERSITTIIDTFHQYSRKEGHPDTLSKKEFRQMVEAQLATFMKKEKRNEALINDIMEDLDTNQDNQLSFEECMMLMAKLIFACHEKLHENNPRGHGHSHGKGCGK
notes: cDNA encoding the protein cloned into a pET29+ vector; The homodimeric status is said of r-hS100A9; also called r-mS100A9; not shown: His10, N-terminal, cleaved; MBP, N-terminal, cleaved
On to B1, for which the binding result in data set [1] is “binds”.

B2: recombinant human S100A9, P06702 1-114 (natural protein)
chain: T1 chain
A word on the stoichiometry N: it is the number of molecules, sites or subunits per partner or assembly. Turning to B2, the stoichiometry N in data set [2] came out at 2.
